Test results as given in US20240190940A1 (published 2024).

Assays:
[1] = molecular target: Q61K RAS 10-mer peptide … presented by HLA-A*01:01 on cells (human); assay: cell-based or functional assay
[2] = molecular target: T1, NRAS Q61K peptide on HLA-A*02:01 (human); assay: cytokine release
T1 peptide: ILDTAGKEEY

[3] = molecular target: T2, NRAS Q61K peptide on HLA-C*07:01 (human); assay: cytokine release
T2 peptide: ILDTAGKEEY

[4] = molecular target: T3, NRAS Q61K peptide on HLA-B*27:01 (human); assay: cytokine release
T3 peptide: ILDTAGKEEY

[5] = molecular target: T4, NRAS Q61R peptide on HLA-A*01:01 (human); assay: cytokine release
T4 peptide: ILDTAGREEY

[6] = molecular target: T5, NRAS Q61K peptide on HLA-B*08:01 (human); assay: cytokine release
T5 peptide: ILDTAGKEEY

[7] = molecular target: T6, NRAS Q61K (Q61K RAS; same sequence in KRAS and HRAS Q61K) peptide on HLA-A*01:01 (human); assay: multimer staining
T6 peptide: ILDTAGKEEY

B1: TCR 3795, cysteine-substituted, LVL-modified chimeric TCR (human variable regions, murine constant regions) (TCR)
TCR alpha: AQKVTQAQTEISVVEKEDVTLDCVYETRDTTYYLFWYKQPPSGELVFLIRRNSFDEQNEISGRYSWNFQKSTSSFNFTITASQVVDSAVYFCALSESHNNAGNMLTFGGGTRLMVKPNIQNPEPAVYQLKDPRSQDSTLCLFTDFDSQINVPKTMESGTFITDKCVLDMKAMDSKSNGAIAWSNQTSFTCQDIFKETNATYPSSDVPCDATLTEKSFETDMNLNFQNLLVIVLRILLLKVAGFNLLMTLRLWSS
TCR beta: NAGVTQTPKFQVLKTGQSMTLQCAQDMNHNSMYWYRQDPGMGLRLIYYSASEGTTDKGEVPNGYNVSRLNKREFSLRLESAAPSQTSVYFCAASQNTEAFFGQGTRLTVVEDLRNVTPPKVSLFEPSKAEIANKQKATLVCLARGFFPDHVELSWWVNGKEVHSGVCTDPQAYKESNYSYCLSSRLRVSATFWHNPRNHFRCQVQFHGLSEEDKWPEGSPKPVTQNISAEAWGRADCGITSASYQQGVLSATILYEILLGKATLYAVLVSTLVVMAMVKRKNS
[1]
  4-1BB upregulation by TCR-transduced CD8+ effector cells (flow cytometry), autologous DC pulsed with various peptide concentrations: > 0.01 µg/ml

B2: 3795 (TCR, V domains shown)
Valpha: AQKVTQAQTEISVVEKEDVTLDCVYETRDTTYYLFWYKQPPSGELVFLIRRNSFDEQNEISGRYSWNFQKSTSSFNFTITASQVVDSAVYFCALSESHNNAGNMLTFGGGTRLMVKP
Vbeta: NAGVTQTPKFQVLKTGQSMTLQCAQDMNHNSMYWYRQDPGMGLRLIYYSASEGTTDKGEVPNGYNVSRLNKREFSLRLESAAPSQTSVYFCAASQNTEAFFGQGTRLTVV
[2]
  binding result: no recognition
[3]
  binding result: no recognition
[4]
  binding result: no recognition
[5]
  binding result: no recognition
[6]
  binding result: no recognition
[7]
  binding result: recognises
